Read-outs that look alike come from different tables or passages of the source.
What was measured:
[1] = target: T1, Drosophila melanogaster AgmNAT (CG15766), wild-type (Drosophila melanogaster, UniProt Q9W469); test: AgmNAT dead-end and product inhibition analysis; format: biochemical
Experimental: Initial velocities were determined by varying the concentration of one substrate, while holding the other substrate at a fixed concentration. […] The resulting initial velocity data was fit to equation 3 for an ordered Bi-Bi mechanism and equation 4 for a ping pong mechanism using IGOR Pro 6.34 A, where vo is the initial velocity, Vmax is the maximal velocity, Kia is the dissociation constant for substrate A, Kb is the Michaelis constant for substrate B, Ka is the Michaelis constant for substrate A, [A] is the concentration of substrate A, and [B] is the concentration of substrate B.3 vo=Vmax[A][B]/KiaKb+Ka[B]+Kb[A]+[A][B] 4 vo=Vmax[A][B]/Ka[B]+Kb[A]+[A][B]
Inhibition experiments by either substrate analogs or N-acetylagamatine were used to discriminate between an ordered, random sequential, or ping pong kinetic mechanism. […] Initial velocity patterns were generated by varying the concentration of one substrate, holding the other substrate concentration at its apparent Km, and changing the concentration of inhibitor for each data set in triplicate. The resulting data was fit to equations 5–7, for competitive, noncompetitive, and uncompetitive inhibition respectively using SigmaPlot 12.0. For […], vo is the initial velocity, Vmax,app is the apparent maximal velocity, Km,app is the apparent Michaelis constant, [S] is the substrate concentration, [I] is the inhibitor concentration, and Ki is the inhibition constant.5 vo=Vmax,app[S]/Km,app(1+[I]/Ki)+[S] 6 vo=Vmax,app[S]/Km,app(1+[I]/Ki)+[S](1+[I]/Ki) 7 vo=Vmax,app[S]/Km,app+[S](1+[I]/Ki)

[2] = target: T1, Drosophila melanogaster AgmNAT (CG15766), wild-type; test: AgmNAT steady-state kinetics, coenzyme A release with Ellman's reagent (DTNB); format: biochemical; settings: for kcat,app / Km: 300 mM Tris-HCl pH 8.5, 150 µM DTNB; for acceptance as amine substrate: amine substrate screen with acetyl-CoA
Experimental: Steady-state kinetic constants for AgmNAT were determined by measuring the rate of coenzyme A release using Ellman’s reagent (DTNB) at 412 nm (molar absorptivity = 13,600 M^−1 cm^−1)[15]–[17]. […] Initial velocities were measured using a Cary 300 Bio UV-Visible spectrophotometer at 22 °C. Acyl-CoA kinetic constants were evaluated by holding the concentration of agmatine at a constant saturating concentration (5 mM). […] The apparent kinetic constants were determined by fitting the resulting data to equation 1 using SigmaPlot 12.0, where vo is the initial velocity, Vmax,app is the apparent maximal velocity, [S] is the substrate concentration, and Km,app is the apparent Michaelis constant. Each assay was performed in triplicate and the uncertainty for the kcat,app and (kcat/Km)app values were calculated using equation 2, where σ is the standard error.1 vo=Vmax,app[S]/Km,app+[S] 2 σ(x/y)=x/y(σx/x)^2+(σy/y)^2

[3] = substrate: N=C(N)NCCCCN; test: as above; format: biochemical, Drosophila melanogaster; settings: other: amine varied, 500 μM acetyl-CoA, 300 mM Tris-HCl pH 8.5, 150 µM DTNB, 22.0 °C
[4] = substrate: NCCCCCN; test: as above; format: biochemical, Drosophila melanogaster; settings: other: amine varied, 500 μM acetyl-CoA, 300 mM Tris-HCl pH 8.5, 150 µM DTNB, 22.0 °C
[5] = substrate: NCCCCNCCCN; test: as above; format: biochemical, Drosophila melanogaster; settings: other: amine varied, 500 μM acetyl-CoA, 300 mM Tris-HCl pH 8.5, 150 µM DTNB, 22.0 °C
[6] = substrate: CC(=O)SCCNC(=O)CCNC(=O)[C@H](O)C(C)(C)COP(=O)(O)OP(=O)(O)OC[C@H]1O[C@@H](n2cnc3c(N)ncnc32)[C@H](O)[C@@H]1OP(=O)(O)O; test: Steady-state kinetics of AgmNAT site-directed mutant S171A; format: biochemical, Drosophila melanogaster; settings: other: S171A, acetyl-CoA varied, saturating agmatine, pH 8.5
Description: (§1) Following the amplification of the AgmNAT site-directed mutant, the sub-cloning, expression, and purification procedures are the same as discussed for the wild-type enzyme.

[7] = substrate: N=C(N)NCCCCN; test: as above; format: biochemical, Drosophila melanogaster; settings: other: S171A, agmatine varied, saturating acetyl-CoA, pH 8.5
Description: as §1

[8] = substrate: CC(=O)SCCNC(=O)CCNC(=O)[C@H](O)C(C)(C)COP(=O)(O)OP(=O)(O)OC[C@H]1O[C@@H](n2cnc3c(N)ncnc32)[C@H](O)[C@@H]1OP(=O)(O)O; test: Steady-state kinetics of AgmNAT site-directed mutant E34A; format: biochemical, Drosophila melanogaster; settings: other: E34A, acetyl-CoA varied, saturating agmatine, pH 8.5
Description: as §1

[9] = substrate: N=C(N)NCCCCN; test: as above; format: biochemical, Drosophila melanogaster; settings: other: E34A, agmatine varied, saturating acetyl-CoA, pH 8.5
Description: as §1

[10] = substrate: CC(=O)SCCNC(=O)CCNC(=O)[C@H](O)C(C)(C)COP(=O)(O)OP(=O)(O)OC[C@H]1O[C@@H](n2cnc3c(N)ncnc32)[C@H](O)[C@@H]1OP(=O)(O)O; test: Steady-state kinetics of AgmNAT site-directed mutant P35A; format: biochemical, Drosophila melanogaster; settings: other: P35A, acetyl-CoA varied, saturating agmatine, pH 8.5
Description: as §1

[11] = substrate: N=C(N)NCCCCN; test: as above; format: biochemical, Drosophila melanogaster; settings: other: P35A, agmatine varied, saturating acetyl-CoA, pH 8.5
Description: as §1

[12] = substrate: CC(=O)SCCNC(=O)CCNC(=O)[C@H](O)C(C)(C)COP(=O)(O)OP(=O)(O)OC[C@H]1O[C@@H](n2cnc3c(N)ncnc32)[C@H](O)[C@@H]1OP(=O)(O)O; test: Steady-state kinetics of AgmNAT site-directed mutant H206A; format: biochemical, Drosophila melanogaster; settings: other: H206A, acetyl-CoA varied, saturating agmatine, pH 8.5
Description: as §1

[13] = substrate: N=C(N)NCCCCN; test: as above; format: biochemical, Drosophila melanogaster; settings: other: H206A, agmatine varied, saturating acetyl-CoA, pH 8.5
Description: as §1

[14] = varied substrate agmatine, constant acetyl-CoA (0.1 mM; 104 µM), read-out: Ki,s
[15] = acyl-CoA varied, 5 mM agmatine, read-out: Km,app
[16] = amine varied, 500 μM acetyl-CoA
[17] = amine varied, 500 μM acetyl-CoA, read-out: Km, app

NC(N)=NCCCCN=C(N)N [Arcaine]
Ki ([1]; varied substrate acetyl-CoA, constant agmatine (0.3 mM), read-out: Ki,i): 34 ± 1 µM | Ki [1, 14]: 28 ± 1 µM | type of inhibition plot (in words) ([1]; versus acetyl-CoA): uncompetitive | type of inhibition plot (in words) ([1]; versus agmatine): competitive

CCCC(=O)SCCNC(=O)CCNC(=O)[C@H](O)C(C)(C)COP(=O)(O)OP(=O)(O)OC[C@H]1O[C@@H](n2cnc3c(N)ncnc32)[C@H](O)[C@@H]1OP(=O)(O)O [Butyryl-CoA]
kcat,app ([2]; acyl-CoA varied, 5 mM agmatine): 3.3 ± 0.1 s⁻¹ | Km [2, 15]: 40 µM

NCCCCCN [Cadaverine]
(kcat/Km)app,agmatine/(kcat/Km)app,polyamine ratio ([2]; acetyl-CoA as co-substrate): 1900

CCCCCCCCCC(=O)SCCNC(=O)CCNC(=O)[C@H](O)C(C)(C)COP(=O)(O)OP(=O)(O)OC[C@H]1O[C@@H](n2cnc3c(N)ncnc32)[C@H](O)[C@@H]1OP(=O)(O)O [Decanoyl-CoA]
kcat,app ([2]; acyl-CoA varied, 5 mM agmatine): 0.16 ± 0.01 s⁻¹ | Km [2, 15]: 70 µM | decrease in kcat,app from acetyl-CoA to decanoyl-CoA ([2]; agmatine as saturating amine substrate): ~ 150 fold

CCCCCC(=O)SCCNC(=O)CCNC(=O)C(O)C(C)(C)COP(=O)(O)OP(=O)(O)OC[C@H]1O[C@@H](n2cnc3c(N)ncnc32)[C@H](O)[C@@H]1OP(=O)(O)O (some centres unmarked) [Hexanoyl-CoA]
kcat,app ([2]; acyl-CoA varied, 5 mM agmatine): 1.1 ± 0.04 s⁻¹ | Km [2, 15]: 110 µM

CC(=O)NCCCNCCCCN [N ^1-acetylspermidine]
acceptance as amine substrate [2]: not AgmNAT substrates

CC(=O)NCCCCNCCCN [N ^8-acetylspermidine]
difference in Km,app relative to spermidine ([2]; acetyl-CoA as co-substrate): ~ 2 fold | increase in kcat,app compared to spermidine ([2]; acetyl-CoA as co-substrate): ~ 25 fold | kcat,app [2, 16]: 32 ± 2 s⁻¹ | Km [2, 17]: 9100 ± 1000 µM

CC(=O)NCCCCN [N-acetylputrescine]
acceptance as amine substrate [2]: not AgmNAT substrates

CCCCCCCC(=O)SCCNC(=O)CCNC(=O)[C@H](O)C(C)(C)COP(=O)(O)OP(=O)(O)OC[C@H]1O[C@@H](n2cnc3c(N)ncnc32)[C@H](O)[C@@H]1OP(=O)(O)O [Octanoyl-CoA]
kcat,app ([2]; acyl-CoA varied, 5 mM agmatine): 0.61 ± 0.02 s⁻¹ | Km [2, 15]: 140 µM

CCCCCCCC/C=C\CCCCCCCC(=O)SCCNC(=O)CCNC(=O)[C@H](O)C(C)(C)COP(=O)(O)OP(=O)(O)OC[C@H]1O[C@@H](n2cnc3c(N)ncnc32)[C@H](O)[C@@H]1OP(=O)(O)O [Oleoyl-CoA]
acceptance as acyl-CoA substrate ([2]; agmatine as amine substrate, oleoyl-CoA at 500 μM): not a substrate | Ki ([1]; varied substrate acetyl-CoA, constant agmatine (0.3 mM), read-out: Ki,s): 19 ± 1 µM | Ki ([1]; varied substrate agmatine, constant acetyl-CoA (0.1 mM; 104 µM), read-out: Ki,i): 67 ± 4 µM | Ki [1, 14]: 67 ± 4 µM | type of inhibition plot (in words) ([1]; versus acetyl-CoA): competitive | type of inhibition plot (in words) ([1]; versus agmatine): noncompetitive

NCCCCN [Putrescine]
kcat,app [2, 16]: 7.7 ± 0.3 s⁻¹ | Km [2, 17]: 51000 ± 3000 µM

NCCCNCCCCNCCCN [Spermine]
(kcat/Km)app,agmatine/(kcat/Km)app,polyamine ratio ([2]; acetyl-CoA as co-substrate): 15 | kcat,app [2, 16]: 77 ± 7 s⁻¹ | Km [2, 17]: 18000 ± 3000 µM

N=C(N)NCCC[C@H](N)C(=O)O [arginine]
acceptance as amine substrate [2]: not AgmNAT substrates

B1: Drosophila melanogaster AgmNAT (CG15766), wild-type (Drosophila melanogaster) (protein)
chain: MAKPIADDIVVRQVDVGETEQLMTFLLAHYYPEEPLTAGTHPPEPEAADKEFLLSNVPFGTCFVALHEGRIVAAVVAGPKDSHEPEHMAEEARKYAGGKWGSILHLLSAVETATDVCRRFSVPSCLHVHALGVDPQLRGRNLGGRLMETVAQRGRDLGHQLVSVDCTSVYSARLVQRLGYQLINTLRYVDHLDASGQQVIRPPPPHESVQTFVLHL
Km [3]: 300 ± 20 µM | kcat [3]: 18 ± 1 s⁻¹ | kcat/Km [3]: 60000 ± 5000 M⁻¹ s⁻¹ | Km [4]: 32000 ± 6000 µM | kcat [4]: 1 ± 0.1 s⁻¹ | kcat/Km [4]: 32 ± 6 M⁻¹ s⁻¹ | Km [5]: 17000 ± 500 µM | kcat [5]: 1.3 ± 0.009 s⁻¹ | kcat/Km [5]: 76 ± 0.5 M⁻¹ s⁻¹

B2: AgmNAT S171A mutant (Drosophila melanogaster; S171A) (protein)
chain: MAKPIADDIVVRQVDVGETEQLMTFLLAHYYPEEPLTAGTHPPEPEAADKEFLLSNVPFGTCFVALHEGRIVAAVVAGPKDSHEPEHMAEEARKYAGGKWGSILHLLSAVETATDVCRRFSVPSCLHVHALGVDPQLRGRNLGGRLMETVAQRGRDLGHQLVSVDCTSVYAARLVQRLGYQLINTLRYVDHLDASGQQVIRPPPPHESVQTFVLHL
Km [6]: 24 ± 1 µM | kcat [6]: 1.84 ± 0.03 s⁻¹ | kcat/Km [6]: 75000 ± 3000 M⁻¹ s⁻¹ | Km [7]: 1000 ± 200 µM | kcat [7]: 1.7 ± 0.1 s⁻¹ | kcat/Km [7]: 1600 ± 300 M⁻¹ s⁻¹

B3: AgmNAT E34A mutant (Drosophila melanogaster; E34A) (protein)
chain: MAKPIADDIVVRQVDVGETEQLMTFLLAHYYPEAPLTAGTHPPEPEAADKEFLLSNVPFGTCFVALHEGRIVAAVVAGPKDSHEPEHMAEEARKYAGGKWGSILHLLSAVETATDVCRRFSVPSCLHVHALGVDPQLRGRNLGGRLMETVAQRGRDLGHQLVSVDCTSVYSARLVQRLGYQLINTLRYVDHLDASGQQVIRPPPPHESVQTFVLHL
Km [8]: 18 ± 3 µM | kcat [8]: 0.011 ± 0.0004 s⁻¹ | kcat/Km [8]: 600 ± 100 M⁻¹ s⁻¹ | Km [9]: 6000 ± 1000 µM | kcat [9]: 0.013 ± 0.001 s⁻¹ | kcat/Km [9]: 2.3 ± 0.3 M⁻¹ s⁻¹

B4: AgmNAT P35A mutant (Drosophila melanogaster; P35A) (protein)
chain: MAKPIADDIVVRQVDVGETEQLMTFLLAHYYPEEALTAGTHPPEPEAADKEFLLSNVPFGTCFVALHEGRIVAAVVAGPKDSHEPEHMAEEARKYAGGKWGSILHLLSAVETATDVCRRFSVPSCLHVHALGVDPQLRGRNLGGRLMETVAQRGRDLGHQLVSVDCTSVYSARLVQRLGYQLINTLRYVDHLDASGQQVIRPPPPHESVQTFVLHL
Km [10]: (2.3 ± 0.3) × 10^2 μM | kcat [10]: 0.43 ± 0.03 s⁻¹ | kcat/Km [10]: 1900 ± 300 M⁻¹ s⁻¹ | Km [11]: 180 ± 20 µM | kcat [11]: 0.36 ± 0.02 s⁻¹ | kcat/Km [11]: 1900 ± 200 M⁻¹ s⁻¹

B5: AgmNAT H206A mutant (Drosophila melanogaster; H206A) (protein)
chain: MAKPIADDIVVRQVDVGETEQLMTFLLAHYYPEEPLTAGTHPPEPEAADKEFLLSNVPFGTCFVALHEGRIVAAVVAGPKDSHEPEHMAEEARKYAGGKWGSILHLLSAVETATDVCRRFSVPSCLHVHALGVDPQLRGRNLGGRLMETVAQRGRDLGHQLVSVDCTSVYSARLVQRLGYQLINTLRYVDHLDASGQQVIRPPPPAESVQTFVLHL
Km [12]: (2.4 ± 0.3) × 10^2 μM | kcat [12]: 1.3 ± 0.1 s⁻¹ | kcat/Km [12]: 5000 ± 1000 M⁻¹ s⁻¹ | Km [13]: 420 ± 40 µM | kcat [13]: 1.2 ± 0.1 s⁻¹ | kcat/Km [13]: 2800 ± 300 M⁻¹ s⁻¹

— PMC5647378, “Structural and Mechanistic Analysis of Drosophila melanogaster Agmatine N-Acetyltransferase, an Enzyme that Catalyzes the Formation of N-Acetylagmatine” (Scientific Reports, 2017)
